In US20200170258A1 one finds % Activity (compared to unmodified Bt.4Q7Flg22), soybean ROS assay, ROS activity in Arabidopsis leaf tissue, Average RLU value, 100 nM and ROS activity in Arabidopsis leaf tissue, fold increase over mock treatment, 100 nM data, which are given here for two molecules.

Test [1] deals with … SENSING 2 (FLS2) of soybean (soybean). As to the kind of experiment: cell-based or functional assay.
In test [2] the target is FLS2 receptor of Arabidopsis thaliana (Arabidopsis thaliana) (UniProt Q9FL28). Briefly: cell-based or functional assay.
Chain of FLS2 receptor of Arabidopsis thaliana (Arabidopsis thaliana) (Q9FL28 24-1173): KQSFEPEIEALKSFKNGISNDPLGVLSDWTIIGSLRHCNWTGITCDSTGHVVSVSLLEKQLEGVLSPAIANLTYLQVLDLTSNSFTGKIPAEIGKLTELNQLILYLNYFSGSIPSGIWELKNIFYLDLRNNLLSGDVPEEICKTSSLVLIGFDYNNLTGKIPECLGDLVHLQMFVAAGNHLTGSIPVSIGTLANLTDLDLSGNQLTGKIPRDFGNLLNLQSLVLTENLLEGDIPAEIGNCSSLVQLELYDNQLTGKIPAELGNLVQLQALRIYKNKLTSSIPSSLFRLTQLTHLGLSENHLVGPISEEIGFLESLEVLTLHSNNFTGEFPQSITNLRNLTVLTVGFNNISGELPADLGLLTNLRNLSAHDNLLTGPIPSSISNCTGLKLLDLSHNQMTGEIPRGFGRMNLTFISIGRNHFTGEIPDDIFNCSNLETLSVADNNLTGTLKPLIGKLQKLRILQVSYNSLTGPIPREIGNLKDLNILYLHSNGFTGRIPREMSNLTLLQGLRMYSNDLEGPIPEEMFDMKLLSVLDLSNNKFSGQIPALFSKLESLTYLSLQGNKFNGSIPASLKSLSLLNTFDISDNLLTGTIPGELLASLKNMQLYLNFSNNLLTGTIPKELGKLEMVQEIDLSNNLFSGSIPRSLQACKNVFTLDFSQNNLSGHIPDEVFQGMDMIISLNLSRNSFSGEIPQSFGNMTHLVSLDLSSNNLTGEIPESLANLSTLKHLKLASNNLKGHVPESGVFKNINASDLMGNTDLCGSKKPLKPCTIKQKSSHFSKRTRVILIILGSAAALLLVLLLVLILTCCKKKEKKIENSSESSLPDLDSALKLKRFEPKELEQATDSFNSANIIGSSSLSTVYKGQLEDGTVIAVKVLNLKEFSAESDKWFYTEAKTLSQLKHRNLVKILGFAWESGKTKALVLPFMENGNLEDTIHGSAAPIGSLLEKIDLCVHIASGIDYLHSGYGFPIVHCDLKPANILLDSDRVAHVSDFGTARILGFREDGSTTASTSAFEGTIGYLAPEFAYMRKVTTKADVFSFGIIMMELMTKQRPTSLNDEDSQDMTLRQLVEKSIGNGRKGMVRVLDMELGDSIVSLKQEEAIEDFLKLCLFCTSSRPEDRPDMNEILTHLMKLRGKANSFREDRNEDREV

Ac-DRLSSGKRINSASDDAAGLAIA-NH2 [Bt.4Q7Flg22 Mod-1] showed a % Activity (compared to unmodified Bt.4Q7Flg22), soybean ROS assay in test [1] of 106%.

Consider DRLSSGKRINSASDDAAGLAIA [Bt.4Q7Flg22], for which, in test [2], the ROS activity in Arabidopsis leaf tissue, Average RLU value, 100 nM came out at 258000 RLU and the ROS activity in Arabidopsis leaf tissue, fold increase over mock treatment, 100 nM came out at 3.1 fold. For the same molecule, in test [1], the % Activity (compared to unmodified Bt.4Q7Flg22), soybean ROS assay is 100%.
